Measured values: the Human Domainome abundance scans (Beltran et al. 2025)

B1: Transcription elongation regulator 1-like protein, residues 448 to 504; numbered along this chain, Q5VWI1 (parent)
chain: LPLEERVTHFRDMLLERGVSAFSTWEKELHKIVFDPRYLLLNSEERKQIFEQFVKTR

Variants of: B1
Experiment: abundance fitness (aPCA) (normalised: wild type 0, dead -1); higher = more abundant; growth selection in yeast, the domain comes from the species named
Conditions: Homo sapiens

Abundance fitness of substitutions, site by site:
M13: V -0.327; K -0.555; I -0.623; S -0.743; L -0.415; P -0.257; A -0.896; F -0.765; C -0.804; E -0.582; T -0.759; W -0.08; R -0.7
E4: C -0.458; N 0.154; L -0.151; R -0.867; P -0.711; T -0.631; M -0.646; K 0.132; A -0.368; S 0.033
L3: Y 0.138; S -0.704; M 0.309; N -0.031; R 0.304; P -0.212; W -0.116; A -0.337; H 0.663; V 0.28; Q 0.591; E 0.132; G -0.214; I 0.427; K 0.487; D -0.135; C -0.857; F 0.04
E5: C -0.303; Y -0.483; F -0.481; I -0.06; R -0.01; P -0.697; G -0.195; V -0.416; L -0.565; W -0.715; Q -0.357; T -0.553; K -0.535; A -0.73; S -0.375; M -0.254
P2: W 0; V -0.031; K 0.925; S 1.09; D 1.26; R 0.776; T 1.24; C 0.766; Q 0.364; A 0.331; E 0.88; N 1.18; L -0.147
F10: H 0.065; M -0.782; A -0.717; Q -0.884; L -0.682; W -0.536; N -0.237; P -0.227; R -0.677; G -0.727; T -0.679; C -1.1; V -0.97
R6: M -0.266; F -0.292; A 0.062; K -0.485; Q -0.744; G -0.894; S -0.832; N -0.485; E -1.01; W -0.774; T -0.772; V -0.701
L14: G -0.751; H -0.997; W -0.093; F -0.817; K -0.905; S -0.831; C -0.561; P -0.251; M -0.066; R -0.739; T -0.528; D -0.484; V -0.967; A -0.701
T8: G -0.35; R -0.631; M -0.396; I -0.386; N -0.275; S -0.149; D -0.45; F -0.291; Q -0.563; V -0.287; C -0.372; L -0.471; H -0.39; P -0.013
H9: I 0.378; A 0.001; W -0.328; L 0.279; M 0.266; Y -0.236; R -0.202; K 0.157; F -0.475; G -0.554; T -0.456; V -0.274; E -0.234; D -0.024; S -0.073; C -0.201; Q 0.232
L1: A -0.321; W -0.717; V -0.4; F 0.408; I 2.04; S -0.082
R11: S -0.695; M -0.411; L -0.396; Y -0.259; G -0.586; T -0.15; D -0.909; F -0.248; K -0.204; C -0.5; E -0.437; A -0.544; V -0.626; W -0.365; P 0.183; Q -0.244
D12: A -0.335; G -0.381; Y -0.112; C -0.578; Q -0.223
